Reference: the supplement of paper PMC10567573
± gives the standard deviation.

Experiment: protein stability index of a GFP-peptide fusion (GPS, HEK-293T) (PSI 1-6); higher = more stable
[1] = treatment: DMSO, c terminus: a fixed tail appended
[2] = treatment: MLN4924 1 uM, 8 h, c terminus: a fixed tail appended
[3] = treatment: DMSO, c terminus: native
[4] = treatment: MLN4924 1 uM, 8 h, c terminus: native
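Note: 24-mer peptide tiles fused after GFP, lentivirally expressed, FACS-sorted into six equal bins by GFP/DsRed ratio, decoded by Illumina sequencing, PSI is the read-weighted mean bin number.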

Sequence	protein stability index [1]	protein stability index [2]	protein stability index [3]	protein stability index [4]
ETFRQQFRQFGYQDSPGPHEALSR [ZNF396]	3.34 ± 0.22	3.68 ± 0.043	–	–
ETQNAFLNERKQASAIKKEELVAR [CHGB]	3.57 ± 0.12	3.77 ± 0.24	–	–
ETSPLPGMLAPAAGPAFDSDPEIS [PPFIA4]	5.48 ± 0.29	5.38 ± 0.31	–	–
ETYHQQGQCQVLVQRSPWLMMRMG [TCAP]	2.18 ± 0.22	2.23 ± 0.35	–	–
EVDPVRRAVRDRNLLRDDRVLQNL [CCND2]	4.1 ± 0.2	4.01 ± 0.27	–	–
EVLVGKTIEQSLLEVMEEEELANL [RSPH3]	4.89 ± 0.3	4.91 ± 0.23	–	–
EVPLISFTGSQPTAERITQLSAPH [ALDH8A1]	3.86 ± 0.35	3.96 ± 0.43	–	–
EVTLSEAGSTAGAAETRGAVEGAA [PALM]	5.43 ± 0.39	5.43 ± 0.17	–	–
EVVVAESELQKELKKVKTAHSNDG [DPCD]	5.18 ± 0.25	5.25 ± 0.32	–	–
EYQPLQIETYGPHVPELEMLGRLG [MNAT1]	3.18 ± 0.28	3.76 ± 0.31	–	–
FDHPIPRVFQNRFSTQYRCFSVSM [UFD1]	2.89 ± 1	2.45 ± 0.6	–	–
FDKKDRRALHWAAYMGHLDVVALL [ANKRD44]	2.61 ± 0.82	2.24 ± 0.22	–	–
FDVVVILTCSLSFLLCARSLLRGF [MCOLN1]	3.38 ± 0.31	2.98 ± 0.54	–	–
FFASGFKRAFKIKDFANTIPGHGG [CDS2]	1.95 ± 0.11	2.33 ± 0.2	–	–
FFYGETVTDYFFTLVQREEPLRIL [CDS2]	2.73 ± 0.66	2.17 ± 0.46	–	–
FGELMRKLWNPRNFKAHVSPHEML [USP39]	2.51 ± 0.43	2.25 ± 0.084	–	–
FGELRLGKNLYTNEYVAIKLEPIK [CSNK1G1]	3.02 ± 0.94	2.04 ± 0.47	–	–
FGGTGIPFGESNGNGVHVCNVKYK [KLHDC10]	2.52 ± 0.35	3.06 ± 0.51	–	–
FIIFGTMEEMQNKAVVFFVFYLWS [HACD3]	2.8 ± 0.69	2.75 ± 0.13	–	–
FIPECNDDGTYSQVQCHSYTGYCW [SMOC2]	2.79 ± 1	2.27 ± 0.45	–	–
FLGLGAPNCLSMGSRCLKTFEVPE [ZBED1]	2.3 ± 0.2	2.06 ± 0.28	–	–
FLLKFLLVGDRDVGKSEILESLQD [RAB40A]	2.65 ± 0.43	2.9 ± 0.56	–	–
FLVDMFNDEIEEVRLQSIHTMRKI [INTS4]	2.33 ± 0.13	2.54 ± 0.34	–	–

Sequence	protein stability index [1]	protein stability index [2]	protein stability index [3]	protein stability index [4]
FMLEIVTPTSLSSLSNAVANTMEH [FBXO33]	2.77 ± 0.75	2.7 ± 0.55	–	–
FNPPPSRPLQVNTADHRIYSYVVS [FAF2]	2.62 ± 0.29	2.92 ± 0.38	–	–
FPDLLLTKRDSFLKRLYRAPIDWI [ALG2]	2.27 ± 0.29	2.64 ± 0.52	–	–
FPLLPDHATALVEAFRLKQQLHAR [PPEF2]	2.74 ± 0.11	2.79 ± 0.09	–	–
FPPDLVFRADQRSGPRQLLTLYNP [MOSPD3]	3.13 ± 0.67	2.93 ± 0.29	–	–
FPYVVLACFLVRGLLLRGAVDGIL [SLC6A17]	2.8 ± 0.65	3.12 ± 1.1	–	–
FQNRRMKHKRQMQDPQLHSPFSGS [VENTX]	3.3 ± 0.38	3.48 ± 0.31	–	–
FQQDTKGLVDFRDVALALAALDGG [LPCAT4]	2.48 ± 0.3	2.71 ± 0.2	–	–
FQQLMVETCSCGYYLHPLPAGAEY [SCNN1D]	2.6 ± 0.69	2.8 ± 0.69	–	–
FQTAIDIFEDRIRGIDIIKWMERY [TRAF3IP2]	1.9 ± 0.34	2.43 ± 0.66	–	–
FQTLMFLVRDWSFPYEYSYGLQGG [ATL3]	3.88 ± 1	3.15 ± 0.28	–	–
FRKFIPKCSKIVIDFDSINSRPSQ [DCTD]	2.4 ± 0.27	2.15 ± 0.33	–	–
FRRGSGSACSLLCCCGRDPSEEHS [MCOLN1]	3.58 ± 0.35	3.33 ± 0.24	–	–
FRTKFETEQALRLSVEADINGLRR [KRT17]	3.37 ± 0.14	3.38 ± 0.32	–	–
FSRVVHLYRNGKDQDGDQAPEYRG [MOG]	3.77 ± 0.21	3.88 ± 0.34	–	–
FSTVWLCWDMQGKRFVAMKVVKSA [SRPK2]	2.46 ± 0.63	2.46 ± 0.28	–	–
FTQPQQTSFALERNLRTQQEIEDK [C8orf76]	4.87 ± 0.37	4.9 ± 0.24	–	–
FTTFFIDCMAALGLAYDRKKVSKA [SCD]	2.07 ± 0.32	2.26 ± 0.53	–	–
FTTLTDRELEEYRREVERKQKGSE [ADD1]	4.53 ± 0.35	4.72 ± 0.4	–	–
FVCQCFEGYILREDGKTCRRKDVC [MATN2]	1.99 ± 0.39	3.09 ± 0.092	–	–
FVLFLFAYLVTVRGNLSILAAVLV [OR3A1]	3.21 ± 0.52	3.33 ± 0.34	–	–
FVLNAAQCSMPLHVAPLLAAAGLH [NR2F2]	3.13 ± 0.25	2.49 ± 0.48	–	–
FYGETVADYFATFVQREEQLQFLI [CDS1]	2.71 ± 0.79	2.43 ± 0.32	–	–

Sequence	protein stability index [1]	protein stability index [2]	protein stability index [3]	protein stability index [4]
GARSKGQCPEPPIVVHCSAGIGRT [PTPN9]	3.46 ± 0.32	3.77 ± 0.46	–	–
GASKAAGVFGFFATIVFATDFYLI [CMTM3]	3.07 ± 0.23	2.88 ± 0.88	–	–
GCWATDAAPAAGLCGAGSEPSIAP [RSPH3]	4.26 ± 0.25	4.41 ± 0.07	–	–
GDAGSRGPMGMRGPPGPQGPPGSP [EMID1]	–	4.54 ± 1.7	–	–
GDEMTSLSEYVSRMKETQKSIYYI [HSP90AB1]	–	2.81 ± 0.3	–	–
GDKCHSLVGKPKIFIIQACRGNQH [CASP6]	2.19 ± 0.3	2.33 ± 0.66	–	–
GEPRKLLTQDWVQENYLEYRQVPG [MAGEA10]	3.62 ± 0.17	4.15 ± 0.3	–	–
GERETRTPEELTILGETQEEEDEI [CLCN6]	5.79 ± 0.11	5.64 ± 0.37	–	–
GFWETIFGNRIKRVKLISNKGTET [PHTF1]	1.6 ± 0.16	2.74 ± 0.053	–	–
GGCTVGVAGEGVRRKGEMGLSAED [TRIM15]	4.98 ± 0.46	5.21 ± 0.37	–	–
GGGGLHSVGTYIIDLLTFLTGQKA [GFOD1]	2.1 ± 0.31	1.98 ± 0.36	–	–
GGRRRPPASSRNRSPSGSLRSARG [RBMY1A1]	5.16 ± 0.28	5.2 ± 0.18	–	–
GGTSVGSLGVPGSVGGVPGGTGSG [ZBTB22]	4.41 ± 0.29	4.76 ± 0.088	–	–
GHSLKNLEHRLNEMERTQAQLRDA [RASAL3]	4.51 ± 0.24	4.58 ± 0.22	–	–
GIIRCPDGISIPELREACDYLCIS [BTBD10]	2.36 ± 0.35	2.5 ± 0.2	–	–
GILRARRGEGIQAPSFSSYLYFLF [SOAT2]	2.29 ± 0.31	2.11 ± 0.28	–	–
GKETMCTVDGLHFNSTYNARVKAF [TRIM9]	3.1 ± 0.37	3.08 ± 0.23	–	–
GKHITVFKTYISPWERAMGVDPQQ [MYOZ1]	2.33 ± 0.27	2.18 ± 0.46	–	–
GKYNAMVLELLGPSLEDLFDLCDR [CSNK1G3]	2.92 ± 0.28	2.18 ± 0.28	–	–
GLDSISHDSANCELPLLTPCSKAV [ETS2]	4.47 ± 0.076	4.55 ± 0.28	–	–
GLEALAGGDLMPAPADPTAREGLA [FCHO1]	5.2 ± 0.15	5.23 ± 0.21	–	–
GLEGLFEDIDTSMYDNELWAPASE [SERTAD1]	3.79 ± 0.05	3.81 ± 0.29	–	–
GLKPNSLYYFRLAARSPQGLGAST [PTPRD]	1.89 ± 0.099	2.85 ± 1	–	–

Sequence	protein stability index [1]	protein stability index [2]	protein stability index [3]	protein stability index [4]
GLLKYCSLLVHGFKPACMSEIKNL [TENT5D]	3.48 ± 0.69	2.59 ± 1.2	–	–
GLMSFIGNRNKLGYSLARGSIGF [TPRG1]	–	–	2.67 ± 0.39	2.5 ± 0.97
GLTLGRSFSNYRPFEPQALGLSPS [SEPHS2]	2.78 ± 0.36	2.81 ± 0.49	–	–
GPQTPKACDSKLTFDAITTIRGEV [MMP1]	3.69 ± 0.28	3.66 ± 0.25	–	–
GQESEVPYKREEEALEERRLSRGE [PKD2L1]	5.39 ± 0.14	5.53 ± 0.15	–	–
GQRQLMVPARDGTSCKLTDLRGVC [ADAMTSL2]	3.08 ± 0.28	3.01 ± 0.16	–	–
GRVSKQASQPVKKQQENATSCSLE [WDR41]	5.22 ± 0.1	5.29 ± 0.16	–	–
GSACSLLCCCGRDPSEEHSLLVN [MCOLN1]	–	–	2.3 ± 0.39	2.27 ± 0.38
GSDTGASLKLASSELERLIVPNSN [JUNB]	4.31 ± 0.057	4.15 ± 0.17	–	–
GSELRDFPGRPMGHLSKDVDENDS [DLC1]	5.63 ± 0.24	5.51 ± 0.17	–	–
GTGGEEVEALQLSARWLEVLRTYL [FBXO33]	2.41 ± 0.23	2.32 ± 0.31	–	–
GVLRPTVRPGTPPDFILKVVIDKH [CTDNEP1]	2.73 ± 0.35	2.67 ± 0.2	–	–
GYHQVPGSAAPGSPLAADPACLGQ [FOXJ1]	4.46 ± 0.22	4.29 ± 0.18	–	–
GYTFDYAYDWVGRPIPTPVGSVHV [CSNK1G1]	2.13 ± 0.44	2.14 ± 0.4	–	–
HAPKIGSNGVEMAAKFPSGSQRAR [SDE2]	4.56 ± 0.13	4.62 ± 0.19	–	–
HDLIFWRDVKKTGFVFGTTLIMLL [RTN3]	2.81 ± 0.37	2.66 ± 0.49	–	–
HEKTVDIYGHVTLMRAQRNYMVQT [PTPRD]	2.32 ± 0.4	2.18 ± 0.43	–	–
HPDSPATGAHWMRQPVSFHRVKLT [TBX6]	3.16 ± 0.16	3.23 ± 0.32	–	–
HPTYEEKLKLVALHKQVLMGPYNP [ACBD3]	2.6 ± 0.34	2.69 ± 0.37	–	–
HSFNFVLSANLHGGAVVANYPYDK [CPN1]	2.19 ± 0.44	2.4 ± 0.2	–	–
